The values that follow come from patent publication US8748182B2, “Mutant proteins and methods for producing them” (Heptares Therapeutics Limited, priority 2007, dated 2014).

Data set [1] can be described thus: Thermostability of solubilised adenosine A2a receptor and mutants (radioligand binding after or during heating). The format is physicochemical. The settings on record: Ligand(−) format, binding after the heating step. From the text:
(§1) FIG. 12 Flow chart showing the two different assay formats of ligand (+) and ligand (−) used to determine receptor thermostablity.
• 1. 315 site-directed mutants made between residues 2-316 of A2aR. • 2. All of these mutants have been assayed for thermostability using an assay measuring agonist and antagonist binding after the heating step (Ligand(−) format as described in FIG. 12). • a. […] Mutations have been combined to generate mutants in a putative antagonist conformation. Wildtype A2aR has a Tm of 31° C. with ZM241385 bound. • a. Rant17 A54L+K122A+L235A Tm 48° C. (ZM241385 bound) • b. Rant19 A54L,T88A,V239A+A204L Tm 47° C. (ZM241385 bound) • c. Rant21 A54L,T88A,V239A+K122A Tm 49° C. (ZM241385 bound) • 4. Mutations from the agonist screen have been combined, but have led to only a very low level of improvement in Tm of +2° C.

The nature of data set [2]: Thermostability of neurotensin receptor (NTR) mutants (3H-neurotensin binding). The format is physicochemical. The conditions noted are these: Ligand(+) format. How it is done: as §1
3. Mutants tested for thermostability by heating in the absence of the agonist were re-tested using a slightly different assay where the mutants were heated in the presence of ^3H-neurotensin (Ligand(+) format in FIG. 12). […] All of these also have increased thermostability. • 5. Preferred combinations are • a. Nag7m F358A+A86L+1260A+F342A Tm 51° C. (neurotensin bound) • b. Nag7n F358A+H103A+1260A+F342A Tm 51° C. (neurotensin bound) • Wildtype NTR has a Tm of 35° C. with neurotensin bound.

B1: E219A: A2aR point mutant (protein, UniProt P29274 1-412, looked up, variant E219A)
Adenosine receptor A2a: MPIMGSSVYITVELAIAVLAILGNVLVCWAVWLNSNLQNVTNYFVVSLAAADIAVGVLAIPFAITISTGFCAACHGCLFIACFVLVLTQSSIFSLLAIAIDRYIAIRIPLRYNGLVTGTRAKGIIAICWVLSFAIGLTPMLGWNNCGQPKEGKNHSQGCGEGQVACLFEDVVPMNYMVYFNFFACVLVPLLLMLGVYLRIFLAARRQLKQMESQPLPGARARSTLQKEVHAAKSLAIIVGLFALCWLPLHIINCFTFFCPDCSHAPLWLMYLAIVLSHTNSVVNPFIYAYRIREFRQTFRKIIRSHVLRQQEPFKAAGTSARVLAAHGSDGEQVSLRLNGHPPGVWANGSAPHPERRPNGYALGLVSGGSAQESQGNTGLPDVELLSHELKGVCPEPPGLDDPLAQDGAGVS
For B1, the “thermostability measured with 3H-NECA (agonist)” value (“thermostability measured” below) in data set [1] was “improved thermostability”.

B2: K227A: A2aR point mutant (protein, UniProt P29274 1-412, looked up, variant K227A)
Adenosine receptor A2a: MPIMGSSVYITVELAIAVLAILGNVLVCWAVWLNSNLQNVTNYFVVSLAAADIAVGVLAIPFAITISTGFCAACHGCLFIACFVLVLTQSSIFSLLAIAIDRYIAIRIPLRYNGLVTGTRAKGIIAICWVLSFAIGLTPMLGWNNCGQPKEGKNHSQGCGEGQVACLFEDVVPMNYMVYFNFFACVLVPLLLMLGVYLRIFLAARRQLKQMESQPLPGERARSTLQAEVHAAKSLAIIVGLFALCWLPLHIINCFTFFCPDCSHAPLWLMYLAIVLSHTNSVVNPFIYAYRIREFRQTFRKIIRSHVLRQQEPFKAAGTSARVLAAHGSDGEQVSLRLNGHPPGVWANGSAPHPERRPNGYALGLVSGGSAQESQGNTGLPDVELLSHELKGVCPEPPGLDDPLAQDGAGVS
For B2, in data set [1], the “thermostability measured” value is given as “improved thermostability”.

B3: Q226A: A2aR point mutant (protein, UniProt P29274 1-412, looked up, variant Q226A)
Adenosine receptor A2a: MPIMGSSVYITVELAIAVLAILGNVLVCWAVWLNSNLQNVTNYFVVSLAAADIAVGVLAIPFAITISTGFCAACHGCLFIACFVLVLTQSSIFSLLAIAIDRYIAIRIPLRYNGLVTGTRAKGIIAICWVLSFAIGLTPMLGWNNCGQPKEGKNHSQGCGEGQVACLFEDVVPMNYMVYFNFFACVLVPLLLMLGVYLRIFLAARRQLKQMESQPLPGERARSTLAKEVHAAKSLAIIVGLFALCWLPLHIINCFTFFCPDCSHAPLWLMYLAIVLSHTNSVVNPFIYAYRIREFRQTFRKIIRSHVLRQQEPFKAAGTSARVLAAHGSDGEQVSLRLNGHPPGVWANGSAPHPERRPNGYALGLVSGGSAQESQGNTGLPDVELLSHELKGVCPEPPGLDDPLAQDGAGVS
For the molecule B3, the “thermostability measured” value in data set [1] was “improved thermostability”.

B4: H230A: A2aR point mutant (protein, UniProt P29274 1-412, looked up, variant H230A)
Adenosine receptor A2a: MPIMGSSVYITVELAIAVLAILGNVLVCWAVWLNSNLQNVTNYFVVSLAAADIAVGVLAIPFAITISTGFCAACHGCLFIACFVLVLTQSSIFSLLAIAIDRYIAIRIPLRYNGLVTGTRAKGIIAICWVLSFAIGLTPMLGWNNCGQPKEGKNHSQGCGEGQVACLFEDVVPMNYMVYFNFFACVLVPLLLMLGVYLRIFLAARRQLKQMESQPLPGERARSTLQKEVAAAKSLAIIVGLFALCWLPLHIINCFTFFCPDCSHAPLWLMYLAIVLSHTNSVVNPFIYAYRIREFRQTFRKIIRSHVLRQQEPFKAAGTSARVLAAHGSDGEQVSLRLNGHPPGVWANGSAPHPERRPNGYALGLVSGGSAQESQGNTGLPDVELLSHELKGVCPEPPGLDDPLAQDGAGVS
For the molecule B4, the “thermostability measured” value in data set [1] is “improved thermostability”.

B5: S223A: A2aR point mutant (protein, UniProt P29274 1-412, looked up, variant S223A)
Adenosine receptor A2a: MPIMGSSVYITVELAIAVLAILGNVLVCWAVWLNSNLQNVTNYFVVSLAAADIAVGVLAIPFAITISTGFCAACHGCLFIACFVLVLTQSSIFSLLAIAIDRYIAIRIPLRYNGLVTGTRAKGIIAICWVLSFAIGLTPMLGWNNCGQPKEGKNHSQGCGEGQVACLFEDVVPMNYMVYFNFFACVLVPLLLMLGVYLRIFLAARRQLKQMESQPLPGERARATLQKEVHAAKSLAIIVGLFALCWLPLHIINCFTFFCPDCSHAPLWLMYLAIVLSHTNSVVNPFIYAYRIREFRQTFRKIIRSHVLRQQEPFKAAGTSARVLAAHGSDGEQVSLRLNGHPPGVWANGSAPHPERRPNGYALGLVSGGSAQESQGNTGLPDVELLSHELKGVCPEPPGLDDPLAQDGAGVS
With B5, in data set [1], the “thermostability measured” value was “improved thermostability”.

B6: R220A: A2aR point mutant (protein, UniProt P29274 1-412, looked up, variant R220A)
Adenosine receptor A2a: MPIMGSSVYITVELAIAVLAILGNVLVCWAVWLNSNLQNVTNYFVVSLAAADIAVGVLAIPFAITISTGFCAACHGCLFIACFVLVLTQSSIFSLLAIAIDRYIAIRIPLRYNGLVTGTRAKGIIAICWVLSFAIGLTPMLGWNNCGQPKEGKNHSQGCGEGQVACLFEDVVPMNYMVYFNFFACVLVPLLLMLGVYLRIFLAARRQLKQMESQPLPGEAARSTLQKEVHAAKSLAIIVGLFALCWLPLHIINCFTFFCPDCSHAPLWLMYLAIVLSHTNSVVNPFIYAYRIREFRQTFRKIIRSHVLRQQEPFKAAGTSARVLAAHGSDGEQVSLRLNGHPPGVWANGSAPHPERRPNGYALGLVSGGSAQESQGNTGLPDVELLSHELKGVCPEPPGLDDPLAQDGAGVS
Consider B6, for which the “thermostability measured” value in data set [1] is recorded as “improved thermostability”.

B7: T224A: A2aR point mutant (protein, UniProt P29274 1-412, looked up, variant T224A)
Adenosine receptor A2a: MPIMGSSVYITVELAIAVLAILGNVLVCWAVWLNSNLQNVTNYFVVSLAAADIAVGVLAIPFAITISTGFCAACHGCLFIACFVLVLTQSSIFSLLAIAIDRYIAIRIPLRYNGLVTGTRAKGIIAICWVLSFAIGLTPMLGWNNCGQPKEGKNHSQGCGEGQVACLFEDVVPMNYMVYFNFFACVLVPLLLMLGVYLRIFLAARRQLKQMESQPLPGERARSALQKEVHAAKSLAIIVGLFALCWLPLHIINCFTFFCPDCSHAPLWLMYLAIVLSHTNSVVNPFIYAYRIREFRQTFRKIIRSHVLRQQEPFKAAGTSARVLAAHGSDGEQVSLRLNGHPPGVWANGSAPHPERRPNGYALGLVSGGSAQESQGNTGLPDVELLSHELKGVCPEPPGLDDPLAQDGAGVS
In the case of B7, the “thermostability measured” value in data set [1] is “improved thermostability”.

B8: V165A: NTR point mutant (protein, UniProt P20789 1-424, looked up, variant V165A)
Neurotensin receptor type 1: MHLNSSVPQGTPGEPDAQPFSGPQSEMEATFLALSLSNGSGNTSESDTAGPNSDLDVNTDIYSKVLVTAIYLALFVVGTVGNSVTAFTLARKKSLQSLQSTVHYHLGSLALSDLLILLLAMPVELYNFIWVHHPWAFGDAGCRGYYFLRDACTYATALNVASLSAERYLAICHPFKAKTLMSRSRTKKFISAIWLASALLAIPMLFTMGLQNRSGDGTHPGGLVCTPIVDTATVKVVIQVNTFMSFLFPMLVISILNTVIANKLTVMVHQAAEQGRVCTVGTHNGLEHSTFNMTIEPGRVQALRHGVLVLRAVVIAFVVCWLPYHVRRLMFCYISDEQWTTFLFDFYHYFYMLTNALFYVSSAINPILYNLVSANFRQVFLSTLACLCPGWRHRRKKRPTFSRKPNSMSSNHAFSTSATRETLY
B8: the “thermostability, heated in the presence of 3H-neurotensin” value (from here on “thermostability, heated in the presence”) in data set [2] was “improved thermostability”.

B9: G215A: NTR point mutant (protein, UniProt P20789 1-424, looked up, variant G215A)
Neurotensin receptor type 1: MHLNSSVPQGTPGEPDAQPFSGPQSEMEATFLALSLSNGSGNTSESDTAGPNSDLDVNTDIYSKVLVTAIYLALFVVGTVGNSVTAFTLARKKSLQSLQSTVHYHLGSLALSDLLILLLAMPVELYNFIWVHHPWAFGDAGCRGYYFLRDACTYATALNVASLSVERYLAICHPFKAKTLMSRSRTKKFISAIWLASALLAIPMLFTMGLQNRSADGTHPGGLVCTPIVDTATVKVVIQVNTFMSFLFPMLVISILNTVIANKLTVMVHQAAEQGRVCTVGTHNGLEHSTFNMTIEPGRVQALRHGVLVLRAVVIAFVVCWLPYHVRRLMFCYISDEQWTTFLFDFYHYFYMLTNALFYVSSAINPILYNLVSANFRQVFLSTLACLCPGWRHRRKKRPTFSRKPNSMSSNHAFSTSATRETLY
In the case of B9, the “thermostability, heated in the presence” value in data set [2] is listed as “improved thermostability”.

B10: V229A: NTR point mutant (protein, UniProt P20789 1-424, looked up, variant V229A)
Neurotensin receptor type 1: MHLNSSVPQGTPGEPDAQPFSGPQSEMEATFLALSLSNGSGNTSESDTAGPNSDLDVNTDIYSKVLVTAIYLALFVVGTVGNSVTAFTLARKKSLQSLQSTVHYHLGSLALSDLLILLLAMPVELYNFIWVHHPWAFGDAGCRGYYFLRDACTYATALNVASLSVERYLAICHPFKAKTLMSRSRTKKFISAIWLASALLAIPMLFTMGLQNRSGDGTHPGGLVCTPIADTATVKVVIQVNTFMSFLFPMLVISILNTVIANKLTVMVHQAAEQGRVCTVGTHNGLEHSTFNMTIEPGRVQALRHGVLVLRAVVIAFVVCWLPYHVRRLMFCYISDEQWTTFLFDFYHYFYMLTNALFYVSSAINPILYNLVSANFRQVFLSTLACLCPGWRHRRKKRPTFSRKPNSMSSNHAFSTSATRETLY
Turning to B10, the “thermostability, heated in the presence” value in data set [2] was “improved thermostability”.

B11: E166A: NTR point mutant (protein, UniProt P20789 1-424, looked up, variant E166A)
Neurotensin receptor type 1: MHLNSSVPQGTPGEPDAQPFSGPQSEMEATFLALSLSNGSGNTSESDTAGPNSDLDVNTDIYSKVLVTAIYLALFVVGTVGNSVTAFTLARKKSLQSLQSTVHYHLGSLALSDLLILLLAMPVELYNFIWVHHPWAFGDAGCRGYYFLRDACTYATALNVASLSVARYLAICHPFKAKTLMSRSRTKKFISAIWLASALLAIPMLFTMGLQNRSGDGTHPGGLVCTPIVDTATVKVVIQVNTFMSFLFPMLVISILNTVIANKLTVMVHQAAEQGRVCTVGTHNGLEHSTFNMTIEPGRVQALRHGVLVLRAVVIAFVVCWLPYHVRRLMFCYISDEQWTTFLFDFYHYFYMLTNALFYVSSAINPILYNLVSANFRQVFLSTLACLCPGWRHRRKKRPTFSRKPNSMSSNHAFSTSATRETLY
As for B11, the “thermostability, heated in the presence” value in data set [2] is reported as “improved thermostability”.
